# Results published in patent US20240101667A1 (University of Texas, published 2024).
# B1: anti-LILRB3 antibody #32 (antibody, V domains shown)
# VH: QVQLVQSGAEVKKPGSSVKVSCKASGGTFSSYAISWVRQAPGQGLEWMGGIIPIFGTANYAQKFQGRVTITADESTSTAYMELSSLRSEDTAVYYCARGWNWFDPWGQGTMVIVSS
# VL: QSVLTQPPSVSADPGQKVTISCSGSSSNIGKNYVSWYQQLPGTAPKLLIYDDNRRLSGTPDRFSGSKSGTSATLGITGLQTGDEADYYCGAWDSSLSAYVFGTGTTVTVL
# notes: Fully human IgG; Tied to clone 'B3-32' only by the clone number; also called B3-32
# B2: B3ICDhFc (LILRB3 intracellular domain fused to hFc at C-terminus) (Fc fusion)
# chain: RRQRHSKHRTSDQRKTDFQRPAGAAETEPKDRGLLRRSSPAADVQEENLYAAVKDTQSEDRVELDSQSPHDEDPQAVTYAPVKHSSPRREMASPPSSLSGEFLDTKDRQVEEDRQMDTEAAASEASQDVTYAQLHSLTLRRKATEPPPSQEGEPPAEPSIYATLAIH
# notes: domain: intracellular domain; also called B3ICD fused to human Fc; intracellular domain of LILRB3 alone; not shown: hFc (human Fc)
# B3: HA-TRAF2 (exogenous, expressed in 293T cells) (other, human, UniProt Q12933 1-501, looked up)
# chain: MAAASVTPPGSLELLQPGFSKTLLGTKLEAKYLCSACRNVLRRPFQAQCGHRYCSFCLASILSSGPQNCAACVHEGIYEEGISILESSSAFPDNAARREVESLPAVCPSDGCTWKGTLKEYESCHEGRCPLMLTECPACKGLVRLGEKERHLEHECPERSLSCRHCRAPCCGADVKAHHEVCPKFPLTCDGCGKKKIPREKFQDHVKTCGKCRVPCRFHAIGCLETVEGEKQQEHEVQWLREHLAMLLSSVLEAKPLLGDQSHAGSELLQRCESLEKKTATFENIVCVLNREVERVAMTAEACSRQHRLDQDKIEALSSKVQQLERSIGLKDLAMADLEQKVLEMEASTYDGVFIWKISDFARKRQEAVAGRIPAIFSPAFYTSRYGYKMCLRIYLNGDGTGRGTHLSLFFVVMKGPNDALLRWPFNQKVTLMLLDQNNREHVIDAFRPDVTSSSFQRPVNDMNIASGCPLFCPVSKMEAKNSYVRDDAIFIKAIVDLTGL
# notes: also called exogenous HA-TRAF2; not shown: HA tag
# B4: anti-LILRB3 IgG #26 (antibody, V domains shown)
# VH: QVQMVESGGGLVKPGGSLRLSCAASGFTFSDHYLSWIRQAPGKGLEWVSYIDLSGSTVYYGDSVKGRFTISRDNARNSVYLQMNSLRAEDTAVYYCARGHYGLDVWGQGTMVTVSS
# VL: NIQMTQSPSTLSASVGDRVTISCRASQSIGTWLAWYQQKPGKAPQLLIYKASSLHSGVPSRFSGSGSGTEFTLTISSLQPDDFATYYCQQYNLYSRTFGQGTKVEIK
# notes: Fully human IgG; also called B3-26
# B5: anti-LILRB3 IgG #1 (antibody, V domains shown)
# VH: EVQLVESGGGVVQPGRSLRLSCAASGFTFSSYGMHWVRQAPGKGLEWVAFIRYDGSNKYYADSVKGRFTISRDNSKNTLYLQMNSLRAEDTAVYYCAKAGFSGWYYYGMDVWGQGTMVTVSS
# VL: DIVMTQSPSSLSASVGDRLTITCRASQSISTYLNWYQQKPGKAPKLLIYGASSLQSGVPSRFSGSGSGTDFTLTISSLQPEDFATYFCQQSYGLPLTFGGGTKVDIK
# notes: Fully human IgG from scFv phage display; also called anti-LILRB3 #1; B3-1
# Tests used:
# [1] = target: T1, recombinant LILRB3 (human LILRB3 extracellular domain protein) (human, UniProt O75022 24-443); test: Octet (BLI), antibody on protein A biosensors, recombinant LILRB3 in solution
# T1 construct: extracellular domain; The panning method names the 'human LILRB3 extracellular domain protein'; The Octet method says only 'recombinant LILRB3', and the antigen of the ELISA is not described; also called LILRB3-ECD
# Experimental: Affinity measurement and epitope binning: Affinity measurement and epitope binning were done as described previously (Gui et al., 2019). Briefly, antibody affinity was analyzed with the Octet RED96 instrument. […] ForteBio's data analysis software was used to extract association and dissociation rates assuming a 1:1 binding model. The Kd was calculated as the ratio koff/kₒₙ. […] In these epitope binning assays, primary antibodies (40 μg/ml) were loaded onto protein A biosensors, and remaining Fc-binding sites on the sensor were blocked with a human non-targeting IgG (200 μg/ml). […] Raw data were processed using ForteBio's Data Analysis Software 7.0. Antibody pairs were assessed for competitive binding.
# [2] = target: FLAG-cFLIP (exogenous, expressed in 293T cells) (human, UniProt O15519 1-480); test: co-immunoprecipitation of FLAG-cFLIP with hFc-tagged LILRB3 constructs in 293T cells (FIG. 5e)
# Description: (§1) Western blotting and co-immunoprecipitation. Cells were lysed with RIPA buffer containing protease inhibitor (Roche Diagnostic). Samples were mixed with 2×SDS loading buffer and separated by SDS-PAGE. After transfer to nitrocellulose membranes, the protein was detected with specific primary antibodies and HRP-conjugated secondary antibodies. […] For immunoprecipitation, cells were lysed with Pierce IP Lysis Buffer (Thermo Fisher Scientific, 87787). […] Dynabeads protein A (Thermo Fisher Scientific, 10001D) was used in all co-immunoprecipitation.
# [3] = target: T2, LILRB3 with amino acids 509-511 mutated from QEE to AAA (human, UniProt O75022 24-631); test: co-immunoprecipitation in 293T cells
# T2 construct: also called B3 AAA mutant; not shown: hFc tag, per the general co-immunoprecipitation method
# Description: as §1
# [4] = target: T3, LILRB3 with deletion of amino acids 505-515 (human, UniProt O75022 24-631); test: co-immunoprecipitation in 293T cells
# T3 construct: Deletion mutant; not shown: hFc tag, per the general co-immunoprecipitation method
# Description: as §1
# Chain of FLAG-cFLIP (exogenous, expressed in 293T cells) (O15519 whole entry): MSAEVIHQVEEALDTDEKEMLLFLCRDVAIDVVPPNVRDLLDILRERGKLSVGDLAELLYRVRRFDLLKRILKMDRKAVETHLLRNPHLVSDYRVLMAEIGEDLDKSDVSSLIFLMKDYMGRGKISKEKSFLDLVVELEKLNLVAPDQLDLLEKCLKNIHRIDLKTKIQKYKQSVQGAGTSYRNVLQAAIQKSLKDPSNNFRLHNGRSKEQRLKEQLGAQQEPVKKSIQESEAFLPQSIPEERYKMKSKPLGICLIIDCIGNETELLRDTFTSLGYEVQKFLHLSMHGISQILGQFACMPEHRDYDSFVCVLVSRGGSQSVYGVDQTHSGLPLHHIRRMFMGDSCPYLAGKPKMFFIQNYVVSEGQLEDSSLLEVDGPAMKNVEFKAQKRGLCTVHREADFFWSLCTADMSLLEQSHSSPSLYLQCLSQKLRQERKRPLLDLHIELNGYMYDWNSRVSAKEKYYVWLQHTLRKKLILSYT
Binder,binding result [1],also measured
B1,binds,
B2,,binding result [2]: no binding
B3,,binding result [3]: no binding; binding result [4]: no binding
B4,binds,
B5,binds,
